Drawing on publication PMC5626764 (2017), this text covers Ki for 1 molecule.

This assay addresses T1, ephrinB2-Fc (human ephrinB2 residues 1-229, Factor XA cleavage site, human IgG1 residues 100-330) (human, UniProt P52799 28-229).
T1 chain: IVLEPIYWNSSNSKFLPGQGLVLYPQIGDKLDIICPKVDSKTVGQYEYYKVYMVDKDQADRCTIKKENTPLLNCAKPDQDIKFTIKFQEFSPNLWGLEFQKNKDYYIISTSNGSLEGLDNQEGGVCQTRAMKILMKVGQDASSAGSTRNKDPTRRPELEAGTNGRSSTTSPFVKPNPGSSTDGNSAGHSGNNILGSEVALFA
Nature of the assay: ELISA.

B1: Wildtype NiV G ectodomain (Nipah virus attachment glycoprotein G, residues 71-602, N-terminal His6-tag) (domain or fragment)
chain: QNYTRSTDNQAVIKDALQGIQQQIKGLADKIGTEIGPKVSLIDTSSTITIPANIGLLGSKISQSTASINENVNEKCKFTLPPLKIHECNISCPNPLPFREYRPQTEGVSNLVGLPNNICLQKTSNQILKPKLISYTLPVVGQSGTCITDPLLAMDEGYFAYSHLERIGSCSRGVSKQRIIGVGEVLDRGDEVPSLFMTNVWTPPNPNTVYHCSAVYNNEFYYVLCAVSTVGDPILNSTYWSGSLMMTRLAVKPKSNGGGYNQHQLALRSIEKGRYDKVMPYGPSGIKQGDTLYFPAVGFLVRTEFKYNDSNCPITKCQYSKPENCRLSMGIRPNSHYILRSGLLKYNLSDGENPKVVFIEISDQRLSIGSPSKIYDSLGQPVFYQASFSWDTMIKFGDVLTVNPLVVNWRNNTVISRPGQSQCPRFNTCPEICWEGVYNDAFLIDRINWISAGVFLDSNQTAENPVFTVFKDNEILYRAQLASEDTNAQKTITNCFLLKNKIWCISLVEIYDTGDNVIRPKLFAVKIPEQCT
For the molecule B1, the affinity, expressed as Ki, was 0.038 nM.
